The values below are quoted from earlier work in article PMC10423694.

The target of data set [1] is K48-diUb (Homo sapiens) (UniProt P0CG47). The data set can be described thus: SPR. In general terms: Surface plasmon resonance follows binding to a sensor surface in real time, without labels.
The target of data set [2] is K63-diUb (Homo sapiens) (UniProt P0CG47). Nature of the data set: SPR.
The target of data set [3] is M1-diUb (Homo sapiens) (UniProt P0CG47). Nature of the data set: SPR.
For data set [4], the target named is ubiquitin monomer (Homo sapiens) (UniProt P0CG47). The data set can be described thus: SPR.
Data set [5] has as its target ubiquitin (Homo sapiens) (UniProt P0CG47).

Chain of NEMO (Q9Y6K9 whole entry): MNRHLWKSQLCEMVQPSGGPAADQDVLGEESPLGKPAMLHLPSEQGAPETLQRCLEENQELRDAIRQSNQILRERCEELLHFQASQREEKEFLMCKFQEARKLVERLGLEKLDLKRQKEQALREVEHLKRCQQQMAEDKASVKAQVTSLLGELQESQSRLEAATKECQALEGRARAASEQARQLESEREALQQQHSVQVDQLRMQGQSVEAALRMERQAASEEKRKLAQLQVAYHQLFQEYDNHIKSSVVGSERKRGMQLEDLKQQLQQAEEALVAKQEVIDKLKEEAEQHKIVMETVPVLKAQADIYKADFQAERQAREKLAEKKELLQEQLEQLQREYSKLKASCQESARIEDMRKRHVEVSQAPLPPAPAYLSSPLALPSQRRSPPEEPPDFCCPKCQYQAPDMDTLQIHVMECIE
Chain of UBQLN2 UBA (Q9UHD9 578-624): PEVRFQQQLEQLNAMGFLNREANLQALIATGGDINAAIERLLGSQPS

The Kd is the concentration at which binding is half-saturated. Take NEMO (from UniProt Q9Y6K9): the Kd is 169 µM in data set [1], 140 µM in data set [2], 4.5 µM in data set [3] and 152 µM in data set [4].

As for UBQLN2 UBA (from UniProt Q9UHD9), in data set [5], the equilibrium dissociation constant (Kd) was 8 µM.
